How the values were obtained:
[1] = molecular target: Nck1 (Nck1-GFP, GST-Nck1 constructs) SH2 domain (UniProt P16333); test: GST-Nck SH2 pull-down from lysate; details: reference: wild type
GST-Nck SH2, P16333 = molecular target: T1, GST-Nck SH2, P16333; test: GST pull-down, anti-HA immunoblot quantified by ImageJ; details: chain shown with the change; 293T cells transiently transfected with Lck and HA-tagged TSAd constructs; lane 7
T1 chain: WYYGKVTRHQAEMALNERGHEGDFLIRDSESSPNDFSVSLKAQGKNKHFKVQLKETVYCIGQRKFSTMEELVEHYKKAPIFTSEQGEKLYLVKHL

With “TSAd (T cell specific adaptor protein) (from UniProt Q9NP31) Y280F” the “binding against the reference” value ([1]; sites Y280) was “weaker”.

“TSAd (T cell specific adaptor protein) (from UniProt Q9NP31) Y280,305F” was tested, and the “binding against the reference” value ([1]; sites Y280,Y305) was “lost”.

B1: HA-tagged TSAd WT co-expressed with Lck in 293T cells (tyrosine phosphorylated), Q9NP31-1 Y280F; Y290F; Y305F (protein)
chain: MEFPLAQICPQGSHEAPIPTFSTFQITDMTRRSCQNLGYTAASPQAPEAASNTGNAERAEEVPGEGSLFLQAETRAWFQKTQAHWLLQHGAAPAWFHGFITRREAERLLEPKPQGCYLVRFSESAVTFVLTYRSRTCCRHFLLAQLRDGRHVVLGEDSAHARLQDLLLHYTAHPLSPYGETLTEPLARQTPEPAGLSLRTEESNFGSKSQDPNPQYSPIIKQGQAPVPMQKEGAGEKEPSQLLRPKPPIPAKPQLPPEVYTIPVPRHRPAPRPKPSNPIFNEPDEPIAFFAMGRGSPGEAPSNIFVEVEDEGLPATLGHPVLRKSWSRPVPGGQNTGGSQLHSENSVIGQGPPLPHQPPPAWRHTLPHNLSRQVLQDRGQAWLPLGPPQ
With B1 the ratio to parent (GST-Nck SH2, P16333) was -0.
